How the values were obtained:
[1] = target: T1, CTLA-4-hFc (immunogen A; hFc-labeled CTLA-4 extracellular domain protein) (human, UniProt P16410 36-161); experiment: ELISA, coated CTLA-4-hFc, competitor biotin-B7.2-hFc
T1 construct: range 36-161; Made in HEK293 cells, purified on protein A; also called CLTA-4-hFc; CTLA-4 protein; not shown: human IgG Fc fragment (hFc) of the pCpC vector
T1 sequence (looked up): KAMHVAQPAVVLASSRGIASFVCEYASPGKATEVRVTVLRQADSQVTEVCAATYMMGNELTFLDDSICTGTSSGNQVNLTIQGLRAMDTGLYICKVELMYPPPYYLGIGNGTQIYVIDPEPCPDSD
Experimental: (§1) CTLA-4 extracellular domain protein (CTLA-4-hFc) was diluted with PBS to a final concentration of 1.0 μg/mL, and then added to a 96-well ELISA plate as 100 μl per well. The plate was covered with a plastic film and incubated overnight at 4° C. The plate was washed twice with plate washing solution [PBS containing 0.01% (v/v) Tween 20] on the next day, and added with blocking solution [PBS containing 0.01% (v/v) Tween 20 and 1% (w/w) BSA] and blocked at room temperature for 2 hours. […] After 2 hours, the plate was washed 3 times with a plate washing solution [PBS containing 0.01% (v/v) Tween 20]. HRP (horseradish peroxidase) labeled avidin diluent (purchased from Sigma) was added 100 microliters per well, and after the plate was incubated for 2 hours at 37° C., it was washed with plate washing solution [PBS containing 0.01% (v/v) Tween 20] for 3 times. […] TMB substrate was added to each well. After incubated at room temperature for 30 minutes, the plate was added with […] stop solution (1.0N HCl) to each well. An ELISA plate reader (SpectraMax 384plus, Molecular Device) was used to read the A450 nm value.

[2] = target: T1, CTLA-4-hFc (immunogen A; hFc-labeled …); experiment: ELISA, coated CTLA-4-hFc, competitor biotin-B7.1-hFc
Experimental: as §1

[3] = target: T1, CTLA-4-hFc (immunogen A; hFc-labeled …); experiment: competition ELISA: CTLA-4-hFc coated, antibody titrated, blocked ligand biotin-labeled B7.2-hFc, HRP-avidin, A450, inhibition (%)
Experimental: as §1

[4] = target: T2, human CTLA-4 (Y201V), full length, on transfected cells (human, UniProt P16410 36-223); experiment: FACS, CHOK1-hCTLA-4 cells
T2 construct: whole, on cells; also called hCTLA-4; HEK293-hCTLA-4 (Y201V)
T2 sequence (looked up): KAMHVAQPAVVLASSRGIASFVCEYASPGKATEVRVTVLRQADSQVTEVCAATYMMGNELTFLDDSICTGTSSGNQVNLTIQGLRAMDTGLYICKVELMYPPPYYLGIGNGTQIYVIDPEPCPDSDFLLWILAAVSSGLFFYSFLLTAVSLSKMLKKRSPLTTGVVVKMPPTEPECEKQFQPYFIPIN

[5] = target: T1, CTLA-4-hFc (immunogen A; hFc-labeled …); experiment: competition ELISA: CTLA-4-hFc coated, antibody titrated, blocked ligand biotin-labeled B7.1-hFc, HRP-avidin, A450, inhibition (%)
Experimental: as §1

[6] = target: T3, monkey CTLA-4, full length, on transfected HEK293 cells (monkey); experiment: FACS, 293F-cCTLA-4 cells
T3 construct: whole, on cells; also called cCTLA-4; HEK293-cCTLA-4
Description: The pIRES plasmid with the monkey-derived CTLA-4 full-length gene was transfected into the HEK293 cell line to construct a HEK293 stable cell line containing monkey CTLA-4 (herein referred to as HEK293-cCTLA-4 stable cell line), wherein the database accession number of the monkey CTLA-4 nucleotide sequence is XM_005574014.1. The HEK293-hCTLA-4 stable cell line and HEK293-cCTLA-4 stable cell line were expanded in a T-75 cell culture flask to a 90% confluence. The medium was aspirated, and the cells were washed with HBSS buffer (Hanks Balanced Salt Solution, purchased from Invitrogen) twice, then treated with an enzyme-free cell dissociation fluid (Versene solution, purchased from Life technology) and the cells were collected. The cells were washed with HBSS buffer twice. After counted, the cells were diluted with HBSS buffer to 2×10⁶ cells per ml, added with 1% goat serum blocking solution, wherein the percentage was the mass percantage. Cells were incubated on ice for 30 minutes, then washed twice with HBSS buffer by centrifugation. The collected cells were suspended in the FACS buffer (HBSS containing 1% BSA, wherein the percentage was the mass percantage) to 2×10⁶ cells/ml, added as 100 microliters per well to a 96-well FACS reaction plate, added with 100 microliters per well of the purified CTLA-4 antibody sample to be tested, incubated on ice for 2 hours. The plate was washed twice with the FACS buffer by centrifugation, added with 100 microliters of fluorescent (Alexa 488)-labeled secondary antibodies (purchased from Invitrogen) per well, and incubated on ice for 1 hour. The plate was washed 3 times with FACS buffer by centrifugation, added with 100 μl fixative solution [4% (v/v) Paraformaldehyde] per well to suspend the cells. 10 minutes later, it was washed 2 times with FACS buffer by centrifugation. The cells were suspended with 100 microliters of FACS buffer, FACS (FACS Calibur, purchased from BD) was used for detection and the results were analyzed.

[7] = target: T4, CTLA-4 on human T lymphocytes (PBMC, CD3+ T cells) (human, UniProt P16410 36-223); experiment: cell-based or functional assay
T4 sequence (looked up): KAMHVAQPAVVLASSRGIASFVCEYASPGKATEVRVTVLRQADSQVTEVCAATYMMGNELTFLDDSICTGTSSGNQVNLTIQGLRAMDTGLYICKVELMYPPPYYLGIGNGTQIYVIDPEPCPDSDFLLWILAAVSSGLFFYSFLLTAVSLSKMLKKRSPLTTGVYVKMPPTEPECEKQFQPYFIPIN

B1: 97B8E1 (chimeric antibody purified from hybridoma supernatant) (antibody, V domains shown)
VH: QVQLVESGGGVVQPGRSLRLSCAASGFTFSSYVMHWVRQAPGKGLEWVAVIWSDGRNKYYTDSVKGRFTISRDNSKNTLYLQMSSLRAEDTAVYYCARSGIALAGNAFDIWGQGTMVTVSS
VL: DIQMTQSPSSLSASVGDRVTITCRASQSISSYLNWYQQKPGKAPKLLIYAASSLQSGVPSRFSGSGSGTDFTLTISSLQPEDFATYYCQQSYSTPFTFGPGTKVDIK
notes: also called mAb50; mAb050
[1]
  Inhibition rate (%) at 0.00091 nM: 0%
  Inhibition rate (%) at 0.091 nM: -29%
  Inhibition rate (%) at 0.274 nM: 2%
  Inhibition rate (%) at 0.823 nM: 62%
  Inhibition rate (%) at 2.5 nM: 78%
  Inhibition rate (%) at 7.4 nM: 89%
  Inhibition rate (%) at 22.2 nM: 91%
  Inhibition rate (%) at 66.7 nM: 93%
[2]
  Inhibition rate (%) at 0.00091 nM: 0%
  Inhibition rate (%) at 0.091 nM: -2%
  Inhibition rate (%) at 0.274 nM: 4%
  Inhibition rate (%) at 0.823 nM: 75%
  Inhibition rate (%) at 2.5 nM: 87%
  Inhibition rate (%) at 7.4 nM: 89%
  Inhibition rate (%) at 22.2 nM: 89%
  Inhibition rate (%) at 66.7 nM: 96%
[3]
  IC50 (read off the curve): ~0.6 nM
[4]
  MFI at 0.07 nM: 22
  MFI at 0.67 nM: 125
  MFI at 6.67 nM: 347
  MFI at 66.67 nM: 606
[5]
  IC50 (read off the curve): ~0.5 nM
[6]
  MFI at 0.000128 nM: 2.3
  MFI at 0.0128 nM: 35.7
  MFI at 0.064 nM: 96.8
  MFI at 0.32 nM: 270
  MFI at 1.6 nM: 504
  MFI at 8 nM: 757
  MFI at 40 nM: 810
  MFI at 200 nM: 784
[7]
  IL-2 (pg/mL) at 0.016 ug/mL, SEB PBMC test: 446 pg/mL
  IL-2 (pg/mL) at 0.08 ug/mL, SEB PBMC test: 824 pg/mL
  IL-2 (pg/mL) at 2 ug/mL, SEB PBMC test: 4450 pg/mL
  IL-2 (pg/mL) at 4 ug/mL (so in the source), SEB PBMC test: 1950 pg/mL
  IL-2 (pg/mL) at 10 ug/mL, SEB PBMC test: 7910 pg/mL
